# Patent publication US20160084839A1 (Merck Sharp & Dohme, published 2016)
# B1: monoclonal antibody 22C3 (antibody, V domains shown)
# VH: QVHLQQSGAELAKPGASVKMSCKASGYTFTSYWIHWIKQRPGQGLEWIGYINPSSGYHEYNQKFIDKATLTADRSSSTAYMHLTSLTSEDSAVYYCARSGWLIHGDYYFDFWGQGTTLTVSS
# VL: DIVMSQSPSSLAVSAGEKVTMTCKSSQSLLHTSTRKNYLAWYQQKPGQSPKLLIYWASTRESGVPDRFTGSGSGTDFTLTISSVQAEDLAVYYCKQSYDVVTFGAGTKLELK
# notes: Whole hybridoma antibody used as primary antibody in IHC; also called MEB037.22C3; PD-L1 22C3 antibody
# Molecular target: T1, human programmed death ligand 1 (PD-L1) (human, UniProt Q9NZQ7 19-290)
# T1 construct: Endogenous PD-L1 on tumor, stromal and inflammatory cells in formalin-fixed, paraffin-embedded tumor tissue sections; 22C3 is described as an anti-human PD-L1 antibody; also called mature PD-L1; hPD-L1
# Experiment: IHC on FFPE NSCLC tissue section
# T1 sequence (Q9NZQ7 19-290): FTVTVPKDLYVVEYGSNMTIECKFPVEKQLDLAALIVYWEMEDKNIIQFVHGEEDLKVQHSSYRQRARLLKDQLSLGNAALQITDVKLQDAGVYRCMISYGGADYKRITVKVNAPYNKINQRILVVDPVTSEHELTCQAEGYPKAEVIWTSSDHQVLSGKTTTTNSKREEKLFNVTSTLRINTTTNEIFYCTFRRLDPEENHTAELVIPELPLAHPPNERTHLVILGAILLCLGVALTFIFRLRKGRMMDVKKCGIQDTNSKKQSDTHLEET
binder,measurement,value
B1,binding result,binds
